In US20140037621A1 (JN BIOSCIENCES, published 2014):

T1: CD30 on the surface of Karpas 299 cells (human, UniProt P28908 19-595)
T1 sequence (looked up): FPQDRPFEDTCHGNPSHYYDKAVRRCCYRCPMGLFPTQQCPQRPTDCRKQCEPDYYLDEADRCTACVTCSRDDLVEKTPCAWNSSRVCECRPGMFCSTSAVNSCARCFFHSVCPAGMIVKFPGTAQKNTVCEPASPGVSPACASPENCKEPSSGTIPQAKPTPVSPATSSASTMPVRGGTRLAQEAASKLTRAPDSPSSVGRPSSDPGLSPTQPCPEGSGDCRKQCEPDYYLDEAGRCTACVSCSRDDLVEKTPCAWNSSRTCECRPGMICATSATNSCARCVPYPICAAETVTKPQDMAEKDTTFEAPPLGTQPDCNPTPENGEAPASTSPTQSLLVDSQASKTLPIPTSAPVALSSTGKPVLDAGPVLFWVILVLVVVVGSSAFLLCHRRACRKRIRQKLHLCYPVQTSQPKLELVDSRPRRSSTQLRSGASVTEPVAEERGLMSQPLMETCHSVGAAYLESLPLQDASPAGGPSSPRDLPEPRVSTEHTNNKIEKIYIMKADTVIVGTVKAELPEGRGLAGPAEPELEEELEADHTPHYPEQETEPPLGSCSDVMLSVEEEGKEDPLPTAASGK

B1: HuYON007.V279-Fcµtp monomer (antibody, human IgG1, lambda)
heavy: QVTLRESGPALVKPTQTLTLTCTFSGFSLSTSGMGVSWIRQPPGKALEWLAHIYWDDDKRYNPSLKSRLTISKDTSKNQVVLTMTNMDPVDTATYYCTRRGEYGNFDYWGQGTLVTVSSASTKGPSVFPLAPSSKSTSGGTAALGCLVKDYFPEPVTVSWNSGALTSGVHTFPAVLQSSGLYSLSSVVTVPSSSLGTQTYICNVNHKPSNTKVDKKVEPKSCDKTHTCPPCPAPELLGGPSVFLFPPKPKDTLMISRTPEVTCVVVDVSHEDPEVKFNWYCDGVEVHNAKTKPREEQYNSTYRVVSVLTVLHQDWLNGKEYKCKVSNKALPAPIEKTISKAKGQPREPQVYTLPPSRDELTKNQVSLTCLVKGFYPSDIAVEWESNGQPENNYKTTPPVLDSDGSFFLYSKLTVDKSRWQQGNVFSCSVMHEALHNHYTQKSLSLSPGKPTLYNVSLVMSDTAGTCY
light: QTVVTQEPSFSVSPGGTVTLTCRSSSGAVTTSNFANWVQQTPGQAPRGLIGGTNNRAPGVPDRFSGSILGNKAALTITGAQADDESDYYCALWYSNHWVFGGGTKLTVLGQPKAAPSVTLFPPSSEELQANKATLVCLISDFYPGAVTVAWKADSSPVKAGVETTTPSKQSNNKYAASSYLSLTPEQWKSHRSYSCQVTHEGSTVEKTVAPTECS
B2: HuYON007.H285-Fcµtp monomer (antibody, human IgG1, lambda)
heavy: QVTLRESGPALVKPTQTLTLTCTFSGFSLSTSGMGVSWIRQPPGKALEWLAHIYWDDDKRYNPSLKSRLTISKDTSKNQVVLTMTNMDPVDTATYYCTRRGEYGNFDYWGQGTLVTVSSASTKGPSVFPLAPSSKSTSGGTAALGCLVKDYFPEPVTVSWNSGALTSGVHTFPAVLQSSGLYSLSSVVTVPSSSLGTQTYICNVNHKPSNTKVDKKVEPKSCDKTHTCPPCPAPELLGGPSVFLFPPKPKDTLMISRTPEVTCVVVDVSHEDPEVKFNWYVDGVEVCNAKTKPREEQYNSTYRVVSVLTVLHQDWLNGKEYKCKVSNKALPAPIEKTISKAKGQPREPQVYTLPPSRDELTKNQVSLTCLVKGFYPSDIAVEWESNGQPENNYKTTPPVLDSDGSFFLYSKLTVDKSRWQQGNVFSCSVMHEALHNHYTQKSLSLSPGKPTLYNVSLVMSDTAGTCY
light: QTVVTQEPSFSVSPGGTVTLTCRSSSGAVTTSNFANWVQQTPGQAPRGLIGGTNNRAPGVPDRFSGSILGNKAALTITGAQADDESDYYCALWYSNHWVFGGGTKLTVLGQPKAAPSVTLFPPSSEELQANKATLVCLISDFYPGAVTVAWKADSSPVKAGVETTTPSKQSNNKYAASSYLSLTPEQWKSHRSYSCQVTHEGSTVEKTVAPTECS
B3: HuYON007.A287-Fcµtp monomer (antibody, human IgG1, lambda)
heavy: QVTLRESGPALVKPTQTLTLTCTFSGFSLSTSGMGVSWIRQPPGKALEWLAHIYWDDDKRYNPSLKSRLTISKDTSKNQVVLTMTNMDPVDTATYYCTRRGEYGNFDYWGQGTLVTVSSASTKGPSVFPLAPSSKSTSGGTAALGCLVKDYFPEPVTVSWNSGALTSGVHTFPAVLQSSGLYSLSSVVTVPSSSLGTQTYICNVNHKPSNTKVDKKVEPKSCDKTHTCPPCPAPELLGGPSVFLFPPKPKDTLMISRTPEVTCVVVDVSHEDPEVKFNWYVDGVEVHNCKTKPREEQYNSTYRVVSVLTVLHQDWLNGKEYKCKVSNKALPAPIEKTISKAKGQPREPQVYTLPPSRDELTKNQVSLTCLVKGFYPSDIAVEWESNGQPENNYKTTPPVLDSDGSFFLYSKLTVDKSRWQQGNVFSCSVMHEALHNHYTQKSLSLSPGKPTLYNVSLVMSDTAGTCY
light: QTVVTQEPSFSVSPGGTVTLTCRSSSGAVTTSNFANWVQQTPGQAPRGLIGGTNNRAPGVPDRFSGSILGNKAALTITGAQADDESDYYCALWYSNHWVFGGGTKLTVLGQPKAAPSVTLFPPSSEELQANKATLVCLISDFYPGAVTVAWKADSSPVKAGVETTTPSKQSNNKYAASSYLSLTPEQWKSHRSYSCQVTHEGSTVEKTVAPTECS
B4: HuYON007.L309-Fcµtp monomer (antibody, human IgG1, lambda)
heavy: not shown
light: QTVVTQEPSFSVSPGGTVTLTCRSSSGAVTTSNFANWVQQTPGQAPRGLIGGTNNRAPGVPDRFSGSILGNKAALTITGAQADDESDYYCALWYSNHWVFGGGTKLTVLGQPKAAPSVTLFPPSSEELQANKATLVCLISDFYPGAVTVAWKADSSPVKAGVETTTPSKQSNNKYAASSYLSLTPEQWKSHRSYSCQVTHEGSTVEKTVAPTECS
B5: HuYON007.V279-Fcµtp multimer (antibody, human IgG1, lambda)
heavy: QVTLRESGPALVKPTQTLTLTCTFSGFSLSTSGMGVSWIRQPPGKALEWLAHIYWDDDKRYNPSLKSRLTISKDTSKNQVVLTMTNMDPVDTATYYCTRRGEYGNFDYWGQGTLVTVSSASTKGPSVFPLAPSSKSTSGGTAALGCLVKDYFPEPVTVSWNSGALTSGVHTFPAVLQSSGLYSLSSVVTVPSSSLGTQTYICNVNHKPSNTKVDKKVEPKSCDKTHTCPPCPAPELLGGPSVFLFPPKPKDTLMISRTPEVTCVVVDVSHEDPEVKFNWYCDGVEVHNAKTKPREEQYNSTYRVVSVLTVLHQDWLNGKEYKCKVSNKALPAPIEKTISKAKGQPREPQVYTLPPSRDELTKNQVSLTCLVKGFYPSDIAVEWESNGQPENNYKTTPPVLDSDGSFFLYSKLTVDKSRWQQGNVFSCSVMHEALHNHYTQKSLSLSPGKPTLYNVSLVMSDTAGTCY
light: QTVVTQEPSFSVSPGGTVTLTCRSSSGAVTTSNFANWVQQTPGQAPRGLIGGTNNRAPGVPDRFSGSILGNKAALTITGAQADDESDYYCALWYSNHWVFGGGTKLTVLGQPKAAPSVTLFPPSSEELQANKATLVCLISDFYPGAVTVAWKADSSPVKAGVETTTPSKQSNNKYAASSYLSLTPEQWKSHRSYSCQVTHEGSTVEKTVAPTECS
B6: HuYON007.H285-Fcµtp multimer (antibody, human IgG1, lambda)
heavy: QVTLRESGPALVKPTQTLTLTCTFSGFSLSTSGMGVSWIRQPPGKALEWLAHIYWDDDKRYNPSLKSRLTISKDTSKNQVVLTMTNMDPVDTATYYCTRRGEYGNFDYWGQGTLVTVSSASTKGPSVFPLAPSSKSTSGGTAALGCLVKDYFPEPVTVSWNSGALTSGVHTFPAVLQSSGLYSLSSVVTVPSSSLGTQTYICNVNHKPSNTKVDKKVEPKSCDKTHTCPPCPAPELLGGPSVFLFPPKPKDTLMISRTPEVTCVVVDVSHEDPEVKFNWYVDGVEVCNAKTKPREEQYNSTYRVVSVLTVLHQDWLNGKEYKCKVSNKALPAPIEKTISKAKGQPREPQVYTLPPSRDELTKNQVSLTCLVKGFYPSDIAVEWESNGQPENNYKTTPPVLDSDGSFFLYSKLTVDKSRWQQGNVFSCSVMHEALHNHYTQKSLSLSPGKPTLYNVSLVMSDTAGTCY
light: QTVVTQEPSFSVSPGGTVTLTCRSSSGAVTTSNFANWVQQTPGQAPRGLIGGTNNRAPGVPDRFSGSILGNKAALTITGAQADDESDYYCALWYSNHWVFGGGTKLTVLGQPKAAPSVTLFPPSSEELQANKATLVCLISDFYPGAVTVAWKADSSPVKAGVETTTPSKQSNNKYAASSYLSLTPEQWKSHRSYSCQVTHEGSTVEKTVAPTECS
B7: HuYON007.A287-Fcµtp multimer (antibody, human IgG1, lambda)
heavy: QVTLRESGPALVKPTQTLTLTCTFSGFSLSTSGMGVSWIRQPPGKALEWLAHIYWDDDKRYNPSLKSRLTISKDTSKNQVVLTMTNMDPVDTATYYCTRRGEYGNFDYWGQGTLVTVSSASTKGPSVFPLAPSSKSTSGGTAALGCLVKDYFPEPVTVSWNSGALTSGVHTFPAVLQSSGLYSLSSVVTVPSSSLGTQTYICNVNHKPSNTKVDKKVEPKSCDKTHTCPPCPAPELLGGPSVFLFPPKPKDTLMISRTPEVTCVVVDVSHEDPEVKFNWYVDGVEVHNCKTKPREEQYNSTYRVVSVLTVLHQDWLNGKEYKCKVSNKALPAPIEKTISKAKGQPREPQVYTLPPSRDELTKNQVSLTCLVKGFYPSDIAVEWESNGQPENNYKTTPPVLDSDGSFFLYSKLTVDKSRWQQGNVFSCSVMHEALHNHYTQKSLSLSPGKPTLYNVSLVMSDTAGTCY
light: QTVVTQEPSFSVSPGGTVTLTCRSSSGAVTTSNFANWVQQTPGQAPRGLIGGTNNRAPGVPDRFSGSILGNKAALTITGAQADDESDYYCALWYSNHWVFGGGTKLTVLGQPKAAPSVTLFPPSSEELQANKATLVCLISDFYPGAVTVAWKADSSPVKAGVETTTPSKQSNNKYAASSYLSLTPEQWKSHRSYSCQVTHEGSTVEKTVAPTECS
B8: HuYON007.L309-Fcµtp multimer (antibody, human IgG1, lambda)
heavy: not shown
light: QTVVTQEPSFSVSPGGTVTLTCRSSSGAVTTSNFANWVQQTPGQAPRGLIGGTNNRAPGVPDRFSGSILGNKAALTITGAQADDESDYYCALWYSNHWVFGGGTKLTVLGQPKAAPSVTLFPPSSEELQANKATLVCLISDFYPGAVTVAWKADSSPVKAGVETTTPSKQSNNKYAASSYLSLTPEQWKSHRSYSCQVTHEGSTVEKTVAPTECS
B9: ChSan11 IgG1/kappa antibody (mouse-human chimeric anti-human CD30) (antibody)
heavy: not shown
VL: DIVLTQSPASLAVSLGQRATISCRASESVEYYGTGLMQWYQQKPGQPPKLLIYSASNVESGVPARFTGSGSGTDFSLNIHPVEEDDIAMYFCQQSRKVPWTFGGGTKLEIKR
B10: ChSan11.V279-Fcµtp multimer (antibody, human IgG1)
heavy: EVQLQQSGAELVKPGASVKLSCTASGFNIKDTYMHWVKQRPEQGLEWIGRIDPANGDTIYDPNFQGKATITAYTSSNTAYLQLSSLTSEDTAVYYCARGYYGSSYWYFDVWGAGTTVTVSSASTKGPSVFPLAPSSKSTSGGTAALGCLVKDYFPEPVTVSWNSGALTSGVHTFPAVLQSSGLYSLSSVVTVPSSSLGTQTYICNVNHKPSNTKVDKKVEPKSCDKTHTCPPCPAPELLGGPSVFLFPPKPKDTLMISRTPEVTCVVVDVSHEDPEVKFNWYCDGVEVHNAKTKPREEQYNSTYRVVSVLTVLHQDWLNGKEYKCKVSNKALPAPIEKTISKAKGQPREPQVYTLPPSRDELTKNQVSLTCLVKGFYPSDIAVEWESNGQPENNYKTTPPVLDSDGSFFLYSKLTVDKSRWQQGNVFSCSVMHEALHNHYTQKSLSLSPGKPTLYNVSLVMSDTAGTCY
VL: DIVLTQSPASLAVSLGQRATISCRASESVEYYGTGLMQWYQQKPGQPPKLLIYSASNVESGVPARFTGSGSGTDFSLNIHPVEEDDIAMYFCQQSRKVPWTFGGGTKLEIKR
B11: ChSan11.H285-Fcµtp multimer (antibody, human IgG1)
heavy: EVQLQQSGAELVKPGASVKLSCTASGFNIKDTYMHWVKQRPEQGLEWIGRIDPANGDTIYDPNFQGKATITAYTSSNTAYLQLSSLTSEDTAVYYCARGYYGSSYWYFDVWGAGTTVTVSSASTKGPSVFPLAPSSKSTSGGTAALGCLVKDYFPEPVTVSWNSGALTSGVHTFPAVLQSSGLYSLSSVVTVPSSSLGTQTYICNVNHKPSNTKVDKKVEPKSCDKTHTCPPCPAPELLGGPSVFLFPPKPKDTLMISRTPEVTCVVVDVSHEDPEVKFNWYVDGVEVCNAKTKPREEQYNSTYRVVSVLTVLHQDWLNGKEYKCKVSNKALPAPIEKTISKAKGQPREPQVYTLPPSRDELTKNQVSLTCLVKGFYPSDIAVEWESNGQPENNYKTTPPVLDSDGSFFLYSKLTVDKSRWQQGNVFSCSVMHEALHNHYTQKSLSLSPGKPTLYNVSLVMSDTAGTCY
VL: DIVLTQSPASLAVSLGQRATISCRASESVEYYGTGLMQWYQQKPGQPPKLLIYSASNVESGVPARFTGSGSGTDFSLNIHPVEEDDIAMYFCQQSRKVPWTFGGGTKLEIKR
B12: ChSan11.A287-Fcµtp multimer (antibody, human IgG1)
heavy: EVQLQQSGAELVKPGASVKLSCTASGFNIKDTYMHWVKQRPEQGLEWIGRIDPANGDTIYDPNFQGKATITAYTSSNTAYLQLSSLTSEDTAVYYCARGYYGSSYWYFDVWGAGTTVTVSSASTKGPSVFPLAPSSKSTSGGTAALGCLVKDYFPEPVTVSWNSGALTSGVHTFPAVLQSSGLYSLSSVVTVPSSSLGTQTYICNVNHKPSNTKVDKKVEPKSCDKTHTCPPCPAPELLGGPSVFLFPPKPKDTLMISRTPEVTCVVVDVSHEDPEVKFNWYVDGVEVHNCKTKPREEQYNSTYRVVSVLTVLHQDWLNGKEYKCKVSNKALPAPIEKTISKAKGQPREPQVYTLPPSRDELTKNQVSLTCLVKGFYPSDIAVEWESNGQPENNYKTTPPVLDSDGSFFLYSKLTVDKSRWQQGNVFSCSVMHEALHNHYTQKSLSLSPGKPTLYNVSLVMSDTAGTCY
VL: DIVLTQSPASLAVSLGQRATISCRASESVEYYGTGLMQWYQQKPGQPPKLLIYSASNVESGVPARFTGSGSGTDFSLNIHPVEEDDIAMYFCQQSRKVPWTFGGGTKLEIKR
B13: ChSan11.L309-Fcµtp multimer (antibody, human IgG1)
heavy: not shown
VL: DIVLTQSPASLAVSLGQRATISCRASESVEYYGTGLMQWYQQKPGQPPKLLIYSASNVESGVPARFTGSGSGTDFSLNIHPVEEDDIAMYFCQQSRKVPWTFGGGTKLEIKR

Molecular target: death receptor 4 (DR4) on the cell surface (Ramos, Colo-205, RPMI 8226 cells) (human, UniProt O00220 24-468)
Assay: cell-based or functional assay

Q: B1 was tested. Which “cell viability of Ramos cells at 100 ng/ml of antibody (alamarBlue)” value (from here on “cell viability of Ramos cells”) did it give?
A: Its value is 80%.

Q: B2 was tested. Which “cell viability of Ramos cells” value did it give?
A: The value was 91%.

Q: B3 was tested. Which “cell viability of Ramos cells” value did it give?
A: Its value is 83%.

Q: For B4, which “cell viability of Ramos cells” value is on record?
A: Its value is 92%.

Q: Which “cell killing of Ramos cells at 100 ng/ml of antibody (alamarBlue)” value (shortened to “cell killing of Ramos cells”) does the source give for B5 here?
A: Its value is roughly 100%.

Q: What about the “viability of Colo-205 cells at 100 ng/ml of antibody (alamarBlue)” value (“viability of Colo-205 cells” for short) of the same binder?
A: The value was less than 35%.

Q: With B6 as the binder, how does the “cell killing of Ramos cells” value read?
A: The value was roughly 100%.

Q: What about the “viability of Colo-205 cells” value of the same binder?
A: Its value is less than 35%.

Q: Which results are given for B7?
A: cell killing of Ramos cells at 100 ng/ml of antibody (alamarBlue): ~100%; viability of Colo-205 cells at 100 ng/ml of antibody (alamarBlue): < 35%

Q: B8 was tested. Which “cell killing of Ramos cells” value did it give?
A: The value was roughly 100%.

Q: And the “viability of Colo-205 cells” value?
A: Its value is less than 35%.

Molecular target: T1, CD30 on the surface of Karpas 299 cells
Assay: cell-based or functional assay

Q: With B9 as the binder, how does the “growth level of Karpas 299 cells (percent cell growth, WST-8, 2 µg/ml antibody, 5 days)” value read?
A: The value was 106%.

Q: How did the “growth level of Karpas 299 cells (percent cell growth, WST-8, 2 µg/ml antibody, 5 days)” value turn out when B10 was run?
A: The value was 41%.

Q: For B11, which “growth level of Karpas 299 cells (percent cell growth, WST-8, 2 µg/ml antibody, 5 days)” value is on record?
A: The value was 39%.

Q: How did the “growth level of Karpas 299 cells (percent cell growth, WST-8, 2 µg/ml antibody, 5 days)” value turn out when B12 was run?
A: Its value is 43%.

Q: How did the “growth level of Karpas 299 cells (percent cell growth, WST-8, 2 µg/ml antibody, 5 days)” value turn out when B13 was run?
A: Its value is 38%.
